{"source": "patent US20230348578A1", "about": "“CONFORMATION-SPECIFIC ANTIBODIES THAT BIND TAU PROTEIN AND USES THEREOF” (Beth Israel Deaconess Medical Center, Inc., priority 2020, published 2023)", "binders": {"B1": {"name": "Cis-mAb HT18 (humanized) (antibody, V domains shown)", "VH": "QVQLVQSGAEVKKPGSSVKVSCKASGYTFTSYWIHWVRQAPGQGLEWMGVIDPSDSYTRYNQKFKGRVTITRDTSMSTAYTELSSLRSEDTAVYYCTTWEVDYWGQGTLVTVSS", "VL": "DIQMTQSPSTLSASVGDRVTITCRSSQSLVHSDGNTYLHWYQQKPGKAPKLLIYKVSNRFSGVPSRFSGSGSGTEFTLTISSLQPDDFATYYCSQSTHVPWTFGQGTKLEIK"}, "B2": {"name": "Cis-mAb HT13 (mouse-human chimera, control) (antibody, V domains shown)", "VH": "QVQLQQPGAELVKPGASVKMSCKASGYTFTSYWIHWVKQRPGQGLEWIGVIDPSDSYTRYNQKFKGKATLTVDTSSSTAYMQLSSLTSEDSAVYYCTTWEVDYWGQGTTLTVSS", "VL": "DVVMTQTPLSLPVSLGDQASISCRSSQSLVHSDGNTYLHWYLQKPGQSPKLLIYKVSNRFSGVPDRFSGSGSGTDFTLKISRLEAEDLGVYFCSQSTHVPWTFGGGTKLEIK"}, "B3": {"name": "Cis-mAb HT10 (humanized) (antibody, V domains shown)", "VH": "B1 VH with S16A, V20M, R38K, A40R, M48I, V68A, I70L, R72V, M76A, T81M", "VL": "B2 VL with T7S, S14T, D17Q, Q18P, K50Q, L83V, L88V, F92Y, L109V"}, "B4": {"name": "Cis-mAb HT8 (humanized) (antibody, V domains shown)", "VH": "B1 VH with S16A, A40R, M48I, M76A, T81M", "VL": "B2 VL with T7S, S14T, D17Q, Q18P, K50Q, F60D, L83V, L88V, L109V"}, "B5": {"name": "Cis-mAb HT9 (humanized) (antibody, V domains shown)", "VH": "B2 VH with Q5V, P7S, V12K, K67R, S76A, L110V", "VL": "B2 VL with T7S, S14T, D17Q, Q18P, K50Q, L83V, L88V, F92Y, L109V"}, "B6": {"name": "Cis-mAb HT17 (humanized) (antibody, V domains shown)", "VH": "B1 VH with S16A, A40R, M48I, M76A, T81M", "VL": "B2 VL with T7S, S14T, D17Q, Q18P, H39N, K50Q, L83V, L88V, L109V"}, "B7": {"name": "Cis-mAb HT1 (humanized) (antibody, V domains shown)", "VH": "B2 VH with Q5V, P7S, V12K, K67R, S76A, L110V", "VL": "B2 VL with T7S, S14T, D17Q, Q18P, K50Q, L83V, L88V, L109V"}, "B8": {"name": "Cis-mAb HT11 (humanized) (antibody, V domains shown)", "VH": "B1 VH with S16A, A40R, M48I, I70L, R72V, M76A, T81M", "VL": "B2 VL with T7S, S14T, D17Q, Q18P, K50Q, L83V, L88V, F92Y, L109V"}, "B9": {"name": "Cis-mAb HT7 (humanized) (antibody, V domains shown)", "VH": "B1 VH with S16A, A40R, M48I, I70L, R72V, M76A, T81M", "VL": "B2 VL with T7S, S14T, D17Q, Q18P, K50Q, F60D, L83V, L88V, L109V"}, "B10": {"name": "Cis-mAb HT3 (humanized) (antibody, V domains shown)", "VH": "B1 VH with S16A, A40R, M48I, I70L, R72V, M76A, T81M", "VL": "B2 VL with T7S, S14T, D17Q, Q18P, K50Q, L83V, L88V, L109V"}, "B11": {"name": "Cis-mAb HT12 (humanized) (antibody, V domains shown)", "VH": "B1 VH with S16A, A40R, M48I, M76A, T81M", "VL": "B2 VL with T7S, S14T, D17Q, Q18P, K50Q, L83V, L88V, F92Y, L109V"}, "B12": {"name": "Cis-mAb HT5 (humanized) (antibody, V domains shown)", "VH": "B2 VH with Q5V, P7S, V12K, K67R, S76A, L110V", "VL": "B2 VL with T7S, S14T, D17Q, Q18P, K50Q, F60D, L83V, L88V, L109V"}, "B13": {"name": "Cis-mAb HT4 (humanized) (antibody, V domains shown)", "VH": "B1 VH with S16A, A40R, M48I, M76A, T81M", "VL": "B2 VL with T7S, S14T, D17Q, Q18P, K50Q, L83V, L88V, L109V"}, "B14": {"name": "Cis-mAb HT15 (humanized) (antibody, V domains shown)", "VH": "B1 VH with S16A, V20M, R38K, A40R, M48I, V68A, I70L, R72V, M76A, T81M", "VL": "B2 VL with T7S, S14T, D17Q, Q18P, H39N, K50Q, L83V, L88V, L109V"}, "B15": {"name": "Cis-mAb HT2 (humanized) (antibody, V domains shown)", "VH": "B1 VH with S16A, V20M, R38K, A40R, M48I, V68A, I70L, R72V, M76A, T81M", "VL": "B2 VL with T7S, S14T, D17Q, Q18P, K50Q, L83V, L88V, L109V"}, "B16": {"name": "Cis-mAb HT14 (humanized) (antibody, V domains shown)", "VH": "B2 VH with Q5V, P7S, V12K, K67R, S76A, L110V", "VL": "B2 VL with T7S, S14T, D17Q, Q18P, H39N, K50Q, L83V, L88V, L109V"}, "B17": {"name": "Cis-mAb HT6 (humanized) (antibody, V domains shown)", "VH": "B1 VH with S16A, V20M, R38K, A40R, M48I, V68A, I70L, R72V, M76A, T81M", "VL": "B2 VL with T7S, S14T, D17Q, Q18P, K50Q, F60D, L83V, L88V, L109V"}, "B18": {"name": "Cis-mAb HT16 (humanized) (antibody, V domains shown)", "VH": "B1 VH with S16A, A40R, M48I, I70L, R72V, M76A, T81M", "VL": "B2 VL with T7S, S14T, D17Q, Q18P, H39N, K50Q, L83V, L88V, L109V"}}, "molecular_target": "P-tau peptide (wild-type P-tau peptide and its pure cis or cis-locked, and pure trans counterparts)", "test": "Biacore (SPR) with P-tau peptide", "note": "Changes are numbered by the printed parent chain.", "data": [{"binder": "B1", "values": [{"measurement": "Kd", "value": 1.91, "unit": "nM"}, {"measurement": "Relative KD", "value": "1.52 fold of HT13"}]}, {"binder": "B2", "values": [{"measurement": "Kd", "value": 1.26, "unit": "nM"}, {"measurement": "Relative KD", "value": "1 fold of HT13"}]}, {"binder": "B3", "values": [{"measurement": "Kd", "value": 1.77, "unit": "nM"}, {"measurement": "Relative KD", "value": "1.4 fold of HT13"}]}, {"binder": "B4", "values": [{"measurement": "Kd", "value": 7.68, "unit": "nM"}, {"measurement": "Relative KD", "value": "6.11 fold of HT13"}]}, {"binder": "B5", "values": [{"measurement": "Kd", "value": 1.89, "unit": "nM"}, {"measurement": "Relative KD", "value": "1.5 fold of HT13"}]}, {"binder": "B6", "values": [{"measurement": "Kd", "value": 4940, "unit": "nM"}, {"measurement": "Relative KD", "value": "3920 fold of HT13"}]}, {"binder": "B7", "values": [{"measurement": "Kd", "value": 1.83, "unit": "nM"}, {"measurement": "Relative KD", "value": "1.45 fold of HT13"}]}, {"binder": "B8", "values": [{"measurement": "Kd", "value": 3.99, "unit": "nM"}, {"measurement": "Relative KD", "value": "3.17 fold of HT13"}]}, {"binder": "B9", "values": [{"measurement": "Kd", "value": 10.8, "unit": "nM"}, {"measurement": "Relative KD", "value": "8.57 fold of HT13"}]}, {"binder": "B10", "values": [{"measurement": "Kd", "value": 3.51, "unit": "nM"}, {"measurement": "Relative KD", "value": "2.79 fold of HT13"}]}, {"binder": "B11", "values": [{"measurement": "Kd", "value": 3.55, "unit": "nM"}, {"measurement": "Relative KD", "value": "2.82 fold of HT13"}]}, {"binder": "B12", "values": [{"measurement": "Kd", "value": 6.91, "unit": "nM"}, {"measurement": "Relative KD", "value": "5.48 fold of HT13"}]}, {"binder": "B13", "values": [{"measurement": "Kd", "value": 2.42, "unit": "nM"}, {"measurement": "Relative KD", "value": "1.92 fold of HT13"}]}, {"binder": "B14", "values": [{"measurement": "Kd", "value": 33.4, "unit": "nM"}, {"measurement": "Relative KD", "value": "26.5 fold of HT13"}]}, {"binder": "B15", "values": [{"measurement": "Kd", "value": 1.62, "unit": "nM"}, {"measurement": "Relative KD", "value": "1.29 fold of HT13"}]}, {"binder": "B16", "values": [{"measurement": "Kd", "value": 30.2, "unit": "nM"}, {"measurement": "Relative KD", "value": "24 fold of HT13"}]}, {"binder": "B17", "values": [{"measurement": "Kd", "value": 6.48, "unit": "nM"}, {"measurement": "Relative KD", "value": "5.14 fold of HT13"}]}, {"binder": "B18", "values": [{"measurement": "Kd", "value": 3.26, "unit": "nM"}, {"measurement": "Relative KD", "value": "2.59 fold of HT13"}]}]}
